Assay [1] deals with T1, recombinant human DLL4 (Cat# 1506-D4/CF, R&D Systems) (human, UniProt Q9NR61 27-529).
T1 construct: Bought protein; also called hDLL4; rHuman DLL4
The experiment in a line: ELISA, DLL4 coated, Fab 25 nM. A digest of the protocol: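 Plates were blocked with 1% BSA/TBST; serially diluted Fab was added in triplicate for 1 h at room temperature. Detection used anti-human kappa or lambda HRP secondary (1:1000, 30 min) and TMB developed for 2 min. The reaction was stopped with H₂SO₄ and absorbance read at 450 nm.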
Background: An ELISA detects its analyte on a solid surface through an enzyme-linked reagent.

The target in assay [2] is T1, recombinant human DLL4 (Cat# …). The experiment in a line: ELISA, DLL4 coated, Fab 50 nM. On the procedure: (§1) In this example, an ELISA binding assay was used to assess the dose-dependent binding of Fab antibodies to recombinant human DLL4 and recombinant mouse DLL4.
(§2) The plate was blocked by adding 1% BSA in Tris-buffered Saline Tween (TBST) and incubating for 1 hour at room temperature followed by washing 2 times with 150 μl TBST. A Fab antibody was serially diluted in 1% BSA in PBS. A 50 μl aliquot of each serial dilution was added, in triplicate, to each well and the plate was incubated for 1 hour at room temperature followed by washing 2 times with TBST. 50 μl of either goat anti-human kappa HRP conjugated secondary antibody (Cat # A7164-1 mL, Sigma-Aldrich) or goat anti-human lambda HRP conjugated secondary antibody (Cat # L1645-1 ml, Sigma-Aldrich), diluted 1:1000 in 1% BSA in PBS, was added to each well and the plate was incubated for 30 minutes at room temperature followed by washing 3 times with 200 μl TBST. Finally, 50 μl TMB one-component reagent (Cat # TMBW-1000-01, BioFax) was added and allowed to develop for 2 minutes at room temperature. The reaction was immediately halted by the addition of 50 μl 0.5M H₂SO₄ and the absorbance at 450 nm was measured using an ELISA plate reader.

Assay [3] shares this target. The experiment in a line: ELISA, DLL4 coated, Fab 100 nM. On the procedure: as §2
For assay [4] the target is unchanged. As to the kind of experiment: ELISA, DLL4 coated, Fab 100 nM. How it is done: as §1, §2
This is another data set of the same source.

Assay [5] has the same target. The experiment in a line: ELISA, DLL4 coated, Fab 0.14 nM. How it is done:
as §2

Assay [6] shares this target. As to the kind of experiment: ELISA, DLL4 coated, Fab 0.41 nM. How it is done: as §2
For assay [7] the target is unchanged. As to the kind of experiment: ELISA, DLL4 coated, Fab 1.23 nM. On the procedure:
as §2

The target is the same in assay [8]. The experiment in a line: ELISA, DLL4 coated, Fab 3.70 nM. How it is done: as §2
The target is the same in assay [9]. As to the kind of experiment: ELISA, DLL4 coated, Fab 12.5 nM. On the procedure:
as §1, §2

For assay [10] the target is unchanged. The experiment in a line: ELISA, DLL4 coated, Fab 11.11 nM.
Assay [11] has the same target. The experiment in a line: ELISA, DLL4 coated, Fab 33.33 nM. How it is done: as §2
For assay [12] the target is unchanged. The experiment in a line: SPR (ProteOn), hDLL4 amine-coupled on chip. How it is done:
In this example, the binding affinities of selected anti-DLL4 Fabs to recombinant human DLL4 (hDLL4, Cat# 1506-D4/CF, R&D Systems) were analyzed using Surface Plasmon Resonance (SPR) (Biosensor Tools, Salt Lake City, Utah). The Fabs analyzed include germline-derived antibodies and germline-modified DLL4 antibodies. Recombinant hDLL4 was immobilized on a SPR chip using amine coupling at three different surface densities. The Fabs were serially diluted 3-fold, with an initial concentration of 1 μM. Binding studies were run on a ProteOn system using a GLM sensor chip in 10 mM HEPES, pH 7.4, 150 mM NaCl, 0.01% Tween-20, and 0.1 mg/ml BSA at 25° C. The response data from each surface was globally fit to determine the binding constants.

Assay [13] shares this target. As to the kind of experiment: ELISA, DLL4 coated, Fab 50 nM. How it is done:
as §2
This is another data set of the same source.

Assay [14] has the same target. As to the kind of experiment: ELISA, DLL4 coated, Fab 75 nM.
For assay [15] the target is unchanged. The experiment in a line: ELISA, DLL4 coated, Fab 100 nM. This is another data set of the same source.
For assay [16] the target is unchanged. The experiment in a line: ELISA, DLL4 coated, Fab 50 nM. On the procedure: as §2
This is another data set of the same source.

Assay [17] shares this target. As to the kind of experiment: ELISA, DLL4 coated, Fab 12.5 nM. How it is done: as §2
This is another data set of the same source.

The target is the same in assay [18]. As to the kind of experiment: ELISA, DLL4 coated, Fab 6.25 nM. How it is done: as §2
Assay [19] has the same target. As to the kind of experiment: ELISA, DLL4 coated, Fab 3.125 nM. On the procedure:
as §2

B1: Fab VH5-51_IGHD5-18*01>3_IGHJ4*01 G100K/G104T G24T/S28R/G35V & V3-4_IGLJ1*01 V91L/S96P (Fab, V domains shown)
VH: EVQLVQSGAEVKKPGESLKISCKTSGYRFTSYWIVWVRQMPGKGLEWMGIIYPGDSDTRYSPSFQGQVTISADKSISTAYLQWSSLKASDTAMYYCARRKYSYTYDYFDYWGQGTLVTVSS
VL: QTVVTQEPSFSVSPGGTVTLTCGLSSGSVSTSYYPSWYQQTPGQAPRTLIYSTNTRSSGVPDRFSGSILGNKAALTITGAQADDESDYYCLLYMGPGISYVFGTGTKVTVL
notes: Fab made in E. coli: VH on CH1 with His6 and Flag tags (Plasmid A), VL on lambda CL (Plasmid E); also called H: KT TRV & L: LP
On to B1, for which the “ELISA absorbance at 450 nm” value in assay [1] is 0.58 A450; in assay [2] it was 0.81 A450; in assay [3], 0.34 A450; in [4] it was 1 A450; in [5] it was 0.03 A450; in assay [6], 0.02 A450. The “ELISA absorbance at 450 nm” value is 0.03 A450 in assay [7]; 0.03 A450 in [8]; 0.45 A450 in assay [9]; 0.07 A450 in [10]; 0.19 A450 in assay [11]. For the same molecule, the dissociation constant (Kd) (commonly the constant that tells how readily two partners part at equilibrium) in [12] was 3.3 nM. The koff (commonly the rate constant with which the complex falls apart) in [12] came out at 0.036 s⁻¹. In addition, the kon – broadly, a measure of how fast the partners come together – in assay [12] turned out to be 1.1e+07 M⁻¹ s⁻¹.

B2: Fab VH5-51_IGHD5-18*01>3_IGHJ4*01 G100K/G104T G24T/S28R/G35V & V3-4_IGLJ1*01 V91L/S96P S52M (Fab, V domains shown)
VH: EVQLVQSGAEVKKPGESLKISCKTSGYRFTSYWIVWVRQMPGKGLEWMGIIYPGDSDTRYSPSFQGQVTISADKSISTAYLQWSSLKASDTAMYYCARRKYSYTYDYFDYWGQGTLVTVSS
VL: QTVVTQEPSFSVSPGGTVTLTCGLSSGSVSTSYYPSWYQQTPGQAPRTLIYMTNTRSSGVPDRFSGSILGNKAALTITGAQADDESDYYCLLYMGPGISYVFGTGTKVTVL
notes: Fab made in E. coli: VH on CH1 with His6 and Flag tags (Plasmid A), VL on lambda CL (Plasmid E); also called H: KT TRV & L: LP S52M
Regarding B2, the “ELISA absorbance at 450 nm” value was 0.59 A450 in [1]; 0.8 A450 in assay [2]; 0.24 A450 in [3]; 1.01 A450 in [4]; 0.02 A450 in assay [5]; 0.03 A450 in [6]. In addition, the “ELISA absorbance at 450 nm” value was determined as 0.03 A450 in assay [7]; 0.03 A450 in assay [8]; 0.41 A450 in [9]; 0.06 A450 in assay [10]; 0.12 A450 in assay [11].

B3: Fab VH1-46_IGHD6-6*01_IGHJ1*01 S102A/S103P/S104F/H111F & L6_IGKJ1*01 (Fab, V domains shown)
VH: QVQLVQSGAEVKKPGASVKVSCKASGYTFTSYYMHWVRQAPGQGLEWMGIINPSGGSTSYAQKFQGRVTMTRDTSTSTVYMELSSLRSEDTAVYYCAREEYAPFSAEYFQFWGQGTLVTVSS
VL: not shown
notes: Fab made in E. coli: VH on CH1 with His6 and Flag tags (Plasmid A), VL on kappa CL (Plasmid C); also called H: APFF & L: wt
B3: the “ELISA absorbance at 450 nm” value is 0.06 A450 in [13], 0.072 A450 in [14] and 0.072 A450 in [15].

B4: Fab VH1-46_IGHD6-6*01_IGHJ1*01 S102A/S103P/S104F/H111F S54A & L6_IGKJ1*01 S28N/S30D/S31H (Fab, V domains shown)
VH: QVQLVQSGAEVKKPGASVKVSCKASGYTFTSYYMHWVRQAPGQGLEWMGIINPAGGSTSYAQKFQGRVTMTRDTSTSTVYMELSSLRSEDTAVYYCAREEYAPFSAEYFQFWGQGTLVTVSS
VL: EIVLTQSPATLSLSPGERATLSCRASQNVDHYLAWYQQKPGQAPRLLIYDASNRATGIPARFSGSGSGTDFTLTISSLEPEDFAVYYCQQRSNWPPWTFGQGTKVEIKR
notes: Fab made in E. coli: VH on CH1 with His6 and Flag tags (Plasmid A), VL on kappa CL (Plasmid C); also called H: APFF S54A & L: NDH
Consider B4, for which the figures for the “ELISA absorbance at 450 nm” value in assay [13], in assay [14] and in assay [15] were 0.154 A450, 0.212 A450 and 0.213 A450, respectively.

B5: Fab VH1-46_IGHD6-6*01_IGHJ1*01 S102A/S103P/S104F/H111F & L6_IGKJ1*01 S28N/S30D/S31H S52T (Fab, V domains shown)
VH: QVQLVQSGAEVKKPGASVKVSCKASGYTFTSYYMHWVRQAPGQGLEWMGIINPSGGSTSYAQKFQGRVTMTRDTSTSTVYMELSSLRSEDTAVYYCAREEYAPFSAEYFQFWGQGTLVTVSS
VL: EIVLTQSPATLSLSPGERATLSCRASQNVDHYLAWYQQKPGQAPRLLIYDATNRATGIPARFSGSGSGTDFTLTISSLEPEDFAVYYCQQRSNWPPWTFGQGTKVEIKR
notes: Fab made in E. coli: VH on CH1 with His6 and Flag tags (Plasmid A), VL on kappa CL (Plasmid C); also called H: APFF & L: NDH S52T
As for B5, the “ELISA absorbance at 450 nm” value in [16] was 0.49 A450; in assay [1] it was 0.323 A450; in [3] it was 0.653 A450; in assay [17], 0.215 A450; in assay [18], 0.13 A450; in assay [19], 0.099 A450.

B6: Fab VH1-46_IGHD6-6*01_IGHJ1*01 S102A/S103P/S104F/H111F & L6_IGKJ1*01 S28N/S30D/S31H S52L (Fab, V domains shown)
VH: QVQLVQSGAEVKKPGASVKVSCKASGYTFTSYYMHWVRQAPGQGLEWMGIINPSGGSTSYAQKFQGRVTMTRDTSTSTVYMELSSLRSEDTAVYYCAREEYAPFSAEYFQFWGQGTLVTVSS
VL: EIVLTQSPATLSLSPGERATLSCRASQNVDHYLAWYQQKPGQAPRLLIYDALNRATGIPARFSGSGSGTDFTLTISSLEPEDFAVYYCQQRSNWPPWTFGQGTKVEIKR
notes: Fab made in E. coli: VH on CH1 with His6 and Flag tags (Plasmid A), VL on kappa CL (Plasmid C); also called H: APFF & L: NDH S52L
As for B6, the “ELISA absorbance at 450 nm” value came to 0.546 A450 in assay [16]; 0.335 A450 in assay [1]; 0.791 A450 in assay [3]; 0.215 A450 in assay [17]; 0.142 A450 in [18]; 0.095 A450 in assay [19].

B7: Fab VH1-46_IGHD6-6*01_IGHJ1*01 S102A/S103P/S104F/H111F G56A & L6_IGKJ1*01 (Fab, V domains shown)
VH: QVQLVQSGAEVKKPGASVKVSCKASGYTFTSYYMHWVRQAPGQGLEWMGIINPSGASTSYAQKFQGRVTMTRDTSTSTVYMELSSLRSEDTAVYYCAREEYAPFSAEYFQFWGQGTLVTVSS
VL: not shown
notes: Fab made in E. coli: VH on CH1 with His6 and Flag tags (Plasmid A), VL on kappa CL (Plasmid C); also called H: APFF G56A & L: wt
Consider B7, for which the “ELISA absorbance at 450 nm” value is 0.301 A450 in assay [13], 0.399 A450 in [14] and 0.338 A450 in [15].

B8: Fab VH1-46_IGHD6-6*01_IGHJ1*01 S102A/S103P/S104F/H111F G56A & L6_IGKJ1*01 S28N/S30D/S31H (Fab, V domains shown)
VH: QVQLVQSGAEVKKPGASVKVSCKASGYTFTSYYMHWVRQAPGQGLEWMGIINPSGASTSYAQKFQGRVTMTRDTSTSTVYMELSSLRSEDTAVYYCAREEYAPFSAEYFQFWGQGTLVTVSS
VL: EIVLTQSPATLSLSPGERATLSCRASQNVDHYLAWYQQKPGQAPRLLIYDASNRATGIPARFSGSGSGTDFTLTISSLEPEDFAVYYCQQRSNWPPWTFGQGTKVEIKR
notes: Fab made in E. coli: VH on CH1 with His6 and Flag tags (Plasmid A), VL on kappa CL (Plasmid C); also called H: APFF G56A & L: NDH
B8: the “ELISA absorbance at 450 nm” value in assay [13] amounted to 0.366 A450; in [14], 0.543 A450; in assay [15], 0.453 A450.

For the origin of these results see patent publication US20110318339A1 (FABRUS, published 2011).
